Measured values: patent US20120184457A1, “Modulation of miRNA Activity” (Cambridge Enterprise Limited, priority 2009, published 2012)

What was measured:
ZCCHC11 = target: T1, ZCCHC11 (Homo sapiens, UniProt Q5TAX3); assay: Screening assay for ZCCHC poly(U) polymerase inhibitors: in vitro uridylation of 5'-end-labeled pre-let-7; assay type: biochemical
T1 construct: expressed in transfected cells; host or cells: HEK293T
Procedure: HEK293T cells were transfected with pHA-FLAG-ZCCHC11. After 48 hrs cells were lysed. 50 μl of the supernatant was incubated with 5 μl of pre-washed anti-FLAG antibody conjugated to agarose beads (Sigma) and incubated for 2 hrs at 4° C. Agarose-beads were washed twice with lysis buffer and twice with buffer D. For in vitro uridylation, agarose beads were incubated in a 30 μl reaction containing 3.2 mM of MgCl2, 1 mM of DTT and 0.25 mM of rUTP, 5 mM of test compound and 5′-end-labeled pre-let-7 of 1×10^4-1×10^5 cpm, for 20 min at 37° C. RNA was purified by Trizol extraction and isopropanol precipitated. Reactions were analysed in a 12% urea polyacrylamide gel.

[1] = target: T2, LIN-28 (GST-LIN-28) (Caenorhabditis elegans) (UniProt P92186); assay: EMSA; conditions: estimated; 50 mM Tris pH 7.6, 100 mM NaCl, 5 mM MgOAc2, tRNA competitor, room temperature
T2 sequence: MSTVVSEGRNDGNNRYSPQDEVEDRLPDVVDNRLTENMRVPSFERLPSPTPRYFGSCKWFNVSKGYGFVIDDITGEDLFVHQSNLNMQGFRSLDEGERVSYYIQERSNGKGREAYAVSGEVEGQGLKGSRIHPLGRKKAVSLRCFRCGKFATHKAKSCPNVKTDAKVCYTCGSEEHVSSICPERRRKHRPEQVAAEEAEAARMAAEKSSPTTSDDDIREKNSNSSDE

[2] = system: recombinant GST-LIN-28 (C. elegans LIN-28 fused to glutathione-S-transferase) [GST: P08515]
Sequence of recombinant GST-LIN-28 (C. elegans LIN-28 fused to glutathione-S-transferase) [GST: P08515] (P08515 whole entry, looked up, the tested form may be a part): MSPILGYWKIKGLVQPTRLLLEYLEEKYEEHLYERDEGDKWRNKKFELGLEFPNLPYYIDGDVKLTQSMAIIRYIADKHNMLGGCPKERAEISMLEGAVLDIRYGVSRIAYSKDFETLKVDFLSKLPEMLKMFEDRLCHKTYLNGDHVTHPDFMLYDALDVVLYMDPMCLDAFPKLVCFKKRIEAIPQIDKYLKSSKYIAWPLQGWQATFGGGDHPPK

T1 sequence (Q5TAX3 whole entry): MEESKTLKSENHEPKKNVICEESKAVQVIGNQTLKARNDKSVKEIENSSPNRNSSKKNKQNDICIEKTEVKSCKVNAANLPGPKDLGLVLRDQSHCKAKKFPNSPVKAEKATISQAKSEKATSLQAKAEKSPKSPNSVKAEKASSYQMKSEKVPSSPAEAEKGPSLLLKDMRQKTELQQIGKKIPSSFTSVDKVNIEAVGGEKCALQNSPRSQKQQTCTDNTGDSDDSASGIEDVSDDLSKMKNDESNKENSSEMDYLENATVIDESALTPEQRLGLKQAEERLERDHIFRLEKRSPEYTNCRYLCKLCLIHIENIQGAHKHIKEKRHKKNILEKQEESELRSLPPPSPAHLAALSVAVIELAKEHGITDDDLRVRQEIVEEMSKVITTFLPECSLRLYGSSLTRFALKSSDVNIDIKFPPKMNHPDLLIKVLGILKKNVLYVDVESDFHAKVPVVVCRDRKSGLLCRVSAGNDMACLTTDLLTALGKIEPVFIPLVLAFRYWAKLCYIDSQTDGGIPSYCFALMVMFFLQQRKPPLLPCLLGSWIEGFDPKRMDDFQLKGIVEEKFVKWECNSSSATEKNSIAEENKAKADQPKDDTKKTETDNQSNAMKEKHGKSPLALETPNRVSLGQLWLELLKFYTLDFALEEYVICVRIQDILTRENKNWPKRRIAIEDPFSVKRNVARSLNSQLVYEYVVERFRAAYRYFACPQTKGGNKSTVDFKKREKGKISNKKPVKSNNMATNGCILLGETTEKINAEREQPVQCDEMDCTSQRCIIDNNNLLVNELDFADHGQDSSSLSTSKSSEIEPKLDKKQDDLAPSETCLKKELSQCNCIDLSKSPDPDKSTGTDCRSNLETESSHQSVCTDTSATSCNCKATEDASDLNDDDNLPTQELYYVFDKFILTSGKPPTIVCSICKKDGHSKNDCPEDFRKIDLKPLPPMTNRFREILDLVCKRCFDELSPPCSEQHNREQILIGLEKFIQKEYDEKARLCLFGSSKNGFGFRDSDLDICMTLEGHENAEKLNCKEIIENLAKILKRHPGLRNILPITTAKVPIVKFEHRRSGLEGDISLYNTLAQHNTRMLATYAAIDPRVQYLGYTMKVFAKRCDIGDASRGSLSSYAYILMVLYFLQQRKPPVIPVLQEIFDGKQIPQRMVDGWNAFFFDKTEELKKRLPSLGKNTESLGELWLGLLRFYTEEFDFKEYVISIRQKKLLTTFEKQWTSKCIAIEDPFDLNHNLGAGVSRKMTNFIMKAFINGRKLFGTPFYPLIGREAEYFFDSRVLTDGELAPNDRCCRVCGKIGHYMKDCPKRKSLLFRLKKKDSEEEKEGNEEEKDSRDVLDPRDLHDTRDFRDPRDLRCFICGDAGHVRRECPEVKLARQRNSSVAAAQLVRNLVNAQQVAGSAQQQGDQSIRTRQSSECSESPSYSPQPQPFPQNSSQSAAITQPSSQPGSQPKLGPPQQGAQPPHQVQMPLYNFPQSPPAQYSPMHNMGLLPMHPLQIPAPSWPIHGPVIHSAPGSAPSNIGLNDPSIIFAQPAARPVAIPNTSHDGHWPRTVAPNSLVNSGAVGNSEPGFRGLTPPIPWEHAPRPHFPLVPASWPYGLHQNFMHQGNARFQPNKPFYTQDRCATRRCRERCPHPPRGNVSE

## uridine 5′-diphosphoglucuronic acid (UDP-GlcA) [compound 1]
ZCCHC11; FLAG immunoprecipitates, 5 mM of test compound, 20 min at 37° C., FIG. 15b
  uridylation activity of FLAG immunoprecipitates of ZCCHC11: reduces the uridylation activity
ZCCHC11; whole cell extracts of HEK293T cells transfected with pHA-FLAG-ZCCHC11, FIG. 15a
  uridylation activity of whole cell extracts (endogenous and HA-FLAG-ZCCHC11 uridylyl activities): reduces the uridylation activity

## pre-let-7 (in vitro transcribed)
[1]
  Kd: 2000 nM

## recombinant MBP-PUP2 (C. elegans PUP2 fused to maltose binding protein)
[2]
  polyuridylation of pre-let-7 in vitro (uridylation assay, incorporation of alpha-32P-UTP): PUP2 was inactive on its own and required the addition of LIN-28 to polyuridylate pre-let-7
  uridylation assay: PUP2 is a LIN-28 dependent pre-let-7 polyuridylase in vitro
